Assay results as given in patent US20220135638A1 (Takeda / Millennium, published 2022).
Numbered stars: 1 amine (or outer) side, 2 acyl side, 3 side chain; on linkers, the order of the positions; unused ones are H or OH. Square brackets hold non-standard residues; d marks the D form. Primed or numbered codes have the meaning given here. Side chains are listed from the residue outwards. Ends that are not written are not given here. * marks the point of attachment. C20 diacid = O=C(O)CCCCCCCCCCCCCCCCCCC(=O)*; C16 diacid = O=C(O)CCCCCCCCCCCCCCC(=O)*; γGlu = O=C(O)[C@H](CCC(=O)[*:2])N[*:1]; Iva = CC[C@](C)(N)C(=O)O; PEG3′ = not defined here; Aib = CC(C)(N)C(=O)O

T1: full-length human GIPR (GenBank NM_000164) with an N-terminal FLAG tag on HEK-293T cells (human), P48546
T1 chain: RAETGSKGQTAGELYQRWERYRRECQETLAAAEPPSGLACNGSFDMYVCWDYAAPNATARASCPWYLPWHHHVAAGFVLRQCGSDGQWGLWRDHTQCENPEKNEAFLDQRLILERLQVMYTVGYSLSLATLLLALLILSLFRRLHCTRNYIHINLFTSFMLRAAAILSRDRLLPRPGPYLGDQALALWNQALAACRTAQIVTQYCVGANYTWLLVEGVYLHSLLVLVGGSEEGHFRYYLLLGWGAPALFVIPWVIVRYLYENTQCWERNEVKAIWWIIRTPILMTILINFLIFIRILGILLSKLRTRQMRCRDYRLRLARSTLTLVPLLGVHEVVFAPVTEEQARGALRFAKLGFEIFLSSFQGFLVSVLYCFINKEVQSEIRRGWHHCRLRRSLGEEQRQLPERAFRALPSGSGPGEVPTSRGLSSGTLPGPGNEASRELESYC

T2: full-length human GLP-1R (GenBank NM_002062) with an N-terminal FLAG tag on HEK-293T cells (human), P43220
T2 chain: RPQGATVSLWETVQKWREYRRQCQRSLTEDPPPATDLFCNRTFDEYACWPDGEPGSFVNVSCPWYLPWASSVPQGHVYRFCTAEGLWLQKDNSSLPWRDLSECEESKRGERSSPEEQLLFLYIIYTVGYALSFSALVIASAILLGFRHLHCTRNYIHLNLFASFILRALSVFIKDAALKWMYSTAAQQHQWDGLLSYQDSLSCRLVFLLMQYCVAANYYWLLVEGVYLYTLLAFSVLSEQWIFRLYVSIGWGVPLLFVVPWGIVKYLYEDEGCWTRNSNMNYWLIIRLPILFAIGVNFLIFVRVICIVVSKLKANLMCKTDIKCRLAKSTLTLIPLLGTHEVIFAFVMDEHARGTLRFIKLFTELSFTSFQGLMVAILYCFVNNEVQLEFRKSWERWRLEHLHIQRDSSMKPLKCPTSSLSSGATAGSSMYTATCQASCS


Target: T1, full-length human GIPR (GenBank …)
Assay: cell-based or functional assay

Row | Binder | GIP EC50(pM)
1 | Y[Aib]EGTFISDYSIALDR[Aib]HQ[Aib]NFVNW[Iva]LAQRPSSGAPPK([PEG3′-PEG3′-γGlu-C16 diacid])S (ends and bridges not checked) [Compound No. 476] | 0.74
2 | Y[Aib]EGTFISDYSIALDR[Aib]HQ[Aib]NFVNW[Iva]LAQRPSSGAK([PEG3′-PEG3′-γGlu-C16 diacid])PPS (ends and bridges not checked) [Compound No. 500] | 0.59
3 | Y[Aib]EGTFISDYSIALDR[Aib]HQ[Aib]NFVNW[Iva]LAQRPSSGAK([PEG3′-PEG3′-γGlu-Ida])PPS (ends and bridges not checked) [Compound No. 501] | 0.92
4 | Y[Aib]EGTFISDYSIALDR[Aib]HQ[Aib]NFVNW[Iva]LAQRPSSGAPPPK([PEG3′-PEG3′-γGlu-Ida]) (ends and bridges not checked) [Compound No. 480] | 0.5
5 | Y[Aib]EGTFISDYSIALDR[Aib]HQ[Aib]NFVNW[Iva]LAQRPSSK([PEG3′-PEG3′-γGlu-Ida])APPPS (ends and bridges not checked) [Compound No. 495] | 0.86
6 | Y[Aib]EGTFISDYSIALDR[Aib]HQ[Aib]NFVNW[Iva]LAQRPSSK([PEG3′-PEG3′-γGlu-C20 diacid])APPPS (ends and bridges not checked) [Compound No. 496] | 1.09
7 | Y[Aib]EGTFISDYSIALDR[Aib]HQ[Aib]NFVNW[Iva]LAQRPSSGAPK([PEG3′-PEG3′-γGlu-Ida])PS (ends and bridges not checked) [Compound No. 504] | 1.08
8 | Y[Aib]EGTFISDYSIALDR[Aib]HQ[Aib]NFVNW[Iva]LAQRK([PEG3′-PEG3′-γGlu-C20 diacid])SSGAPPPS (ends and bridges not checked) [Compound No. 487] | 1.38
9 | Y[Aib]EGTFISDYSIALDR[Aib]HQ[Aib]NFVNW[Iva]LAQRPSSK([PEG3′-PEG3′-γGlu-C16 diacid])APPPS (ends and bridges not checked) [Compound No. 494] | 0.5
10 | Y[Aib]EGTFISDYSIALDR[Aib]HQ[Aib]NFVNW[Iva]LAQRKSSGAPPPS (not fully specified (residue 31); ends and bridges not checked) [Compound No. 470] | 1.12
11 | Y[Aib]EGTFISDYSIALDR[Aib]HQ[Aib]NFVNW[Iva]LAQRPSSGK([PEG3′-PEG3′-γGlu-C20 diacid])PPPS (ends and bridges not checked) [Compound No. 499] | 1.17
12 | Y[Aib]EGTFISDYSIALDR[Aib]HQ[Aib]NFVNW[Iva]LAQRK([PEG3′-PEG3′-γGlu-C16 diacid])SSGAPPPS (ends and bridges not checked) [Compound No. 485] | 0.28
13 | Y[Aib]EGTFISDYSIALDR[Aib]HQ[Aib]NFVNW[Iva]LAQRPSSGAK([PEG3′-PEG3′-γGlu-C20 diacid])PPS (ends and bridges not checked) [Compound No. 502] | 1.78
14 | Y[Aib]EGTFISDYSIALDR[Aib]HQ[Aib]NFVNW[Iva]LAQRPSK([PEG3′-PEG3′-γGlu-C16 diacid])GAPPPS (ends and bridges not checked) [Compound No. 491] | 0.7

Target: T2, full-length human GLP-1R (GenBank …)
Assay: cell-based or functional assay

Row | Binder | GLP EC50 [nM]
15 | Y[Aib]EGTFISDYSIALDR[Aib]HQ[Aib]NFVNW[Iva]LAQRPSSGAPPK([PEG3′-PEG3′-γGlu-C16 diacid])S (ends and bridges not checked) [Compound No. 476] | > 1000
16 | Y[Aib]EGTFISDYSIALDR[Aib]HQ[Aib]NFVNW[Iva]LAQRPSSGAK([PEG3′-PEG3′-γGlu-C16 diacid])PPS (ends and bridges not checked) [Compound No. 500] | > 1000
17 | Y[Aib]EGTFISDYSIALDR[Aib]HQ[Aib]NFVNW[Iva]LAQRPSSGAK([PEG3′-PEG3′-γGlu-Ida])PPS (ends and bridges not checked) [Compound No. 501] | > 1000
18 | Y[Aib]EGTFISDYSIALDR[Aib]HQ[Aib]NFVNW[Iva]LAQRPSSGAPPPK([PEG3′-PEG3′-γGlu-Ida]) (ends and bridges not checked) [Compound No. 480] | > 1000
19 | Y[Aib]EGTFISDYSIALDR[Aib]HQ[Aib]NFVNW[Iva]LAQRPSSK([PEG3′-PEG3′-γGlu-Ida])APPPS (ends and bridges not checked) [Compound No. 495] | > 1000
20 | Y[Aib]EGTFISDYSIALDR[Aib]HQ[Aib]NFVNW[Iva]LAQRPSSK([PEG3′-PEG3′-γGlu-C20 diacid])APPPS (ends and bridges not checked) [Compound No. 496] | > 1000
21 | Y[Aib]EGTFISDYSIALDR[Aib]HQ[Aib]NFVNW[Iva]LAQRPSSGAPK([PEG3′-PEG3′-γGlu-Ida])PS (ends and bridges not checked) [Compound No. 504] | > 1000
22 | Y[Aib]EGTFISDYSIALDR[Aib]HQ[Aib]NFVNW[Iva]LAQRK([PEG3′-PEG3′-γGlu-C20 diacid])SSGAPPPS (ends and bridges not checked) [Compound No. 487] | > 1000
23 | Y[Aib]EGTFISDYSIALDR[Aib]HQ[Aib]NFVNW[Iva]LAQRPSSK([PEG3′-PEG3′-γGlu-C16 diacid])APPPS (ends and bridges not checked) [Compound No. 494] | > 1000
24 | Y[Aib]EGTFISDYSIALDR[Aib]HQ[Aib]NFVNW[Iva]LAQRKSSGAPPPS (not fully specified (residue 31); ends and bridges not checked) [Compound No. 470] | > 1000
25 | Y[Aib]EGTFISDYSIALDR[Aib]HQ[Aib]NFVNW[Iva]LAQRPSSGK([PEG3′-PEG3′-γGlu-C20 diacid])PPPS (ends and bridges not checked) [Compound No. 499] | > 1000
26 | Y[Aib]EGTFISDYSIALDR[Aib]HQ[Aib]NFVNW[Iva]LAQRK([PEG3′-PEG3′-γGlu-C16 diacid])SSGAPPPS (ends and bridges not checked) [Compound No. 485] | > 1000
27 | Y[Aib]EGTFISDYSIALDR[Aib]HQ[Aib]NFVNW[Iva]LAQRPSSGAK([PEG3′-PEG3′-γGlu-C20 diacid])PPS (ends and bridges not checked) [Compound No. 502] | > 1000
28 | Y[Aib]EGTFISDYSIALDR[Aib]HQ[Aib]NFVNW[Iva]LAQRPSK([PEG3′-PEG3′-γGlu-C16 diacid])GAPPPS (ends and bridges not checked) [Compound No. 491] | > 1000
